The values below are quoted from earlier work in PMC6600238.

The target of this data set is vitronectin (Homo sapiens) (UniProt P04004).
Sequence of UniProt P04004 (P04004 399-478): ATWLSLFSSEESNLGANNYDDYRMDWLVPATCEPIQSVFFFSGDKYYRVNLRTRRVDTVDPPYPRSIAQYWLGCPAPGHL

Consider uPAR (from UniProt Q03405), for which the Kd was 4 µM.

As usually defined, the Kd is a measure of binding affinity in units of concentration.
